Publication PMC6440998, “Tunable microsecond dynamics of an allosteric switch regulate the activity of a AAA+ disaggregation machine” (Nature Communications, 2019)

B1: Thermus thermophilus ClpB, wild type (natural protein)
chain: not shown
notes: ClpB of Thermus thermophilus, cloned into pET28b with a six-histidine tag preceded by a TEV site; Homohexamer; also called TT ClpB; WT; source: E. coli BL21 (DE3) pLysS, purified (Ni-NTA, HiPrep DEAE FF)
B2: ClpB S428C-S771C, double-labeled subunit (natural protein)
chain: not shown
modifications: Alexa 488 C5 maleimide (donor) and Alexa 594 C5 maleimide (acceptor) on the cysteines at 428 and 771
notes: ClpB of Thermus thermophilus with two cysteines for the dyes; S428C-S771C is the main construct; also called double-labeled subunits; labeled ClpB; source: E. coli BL21 (DE3) pLysS, purified (Ni-NTA, HiPrep DEAE FF), labeled

Legend:
[1] = target: the molecule itself; assay: not stated; test of hexamer assembly shown in Supplementary Figs. 3 and 13 and the supplementary section “Validating the structural integrity of ClpB hexamers”; 2 mM ATP for the labeled sample
[2] = target: B1; assay: native gel or EMSA + SEC; native gel electrophoresis and gel filtration chromatography of reassembled mixed labeled ClpB and of the WT; conditions: both partners purified

Row | Binder | stoichiometry N [1] | binding result [2]
1 | B1 | 6 | 
2 | B2 |  | binds
